Rapp (Mapp / Mmono) data for one substance are collected here from publication PMC6400067.

This experiment deals with phosphoenolpyruvate carboxylase (Ppc; cce_3822) (Cyanothece ATCC 51142 (endogenous in the cells)). Put plainly: SEC.

With “phosphoenolpyruvate carboxylase (Ppc; cce_3822) (enzyme)”, the Rapp (Mapp / Mmono) was 4.6.
